{"source": "patent EP3984547A1", "about": "(Universitat Pompeu Fabra, dated 2022)", "key": {"[1]": {"target": "T1, TWEAK (Peprotech EC, Ltd, U.K.) (UniProt O43508 94-249, limits assumed)", "T1 sequence (looked up)": "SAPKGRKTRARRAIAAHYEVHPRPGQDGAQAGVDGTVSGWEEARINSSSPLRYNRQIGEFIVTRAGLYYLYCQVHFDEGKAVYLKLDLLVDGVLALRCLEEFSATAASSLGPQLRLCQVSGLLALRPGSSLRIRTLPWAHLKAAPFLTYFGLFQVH", "assay": "cell-based or functional assay"}, "[2]": {"target": "T2, Histidine-tagged human TWEAK (His6-TWEAK) protein (R&D Systems) (human, UniProt O43508 93-249, limits assumed)", "T2 construct": "Bought protein, captured through the His6 tag on an NTA chip and then coupled covalently by amine coupling; also called human His6-TWEAK protein; histidine-tagged TWEAK; not shown: His6 tag", "T2 sequence (looked up)": "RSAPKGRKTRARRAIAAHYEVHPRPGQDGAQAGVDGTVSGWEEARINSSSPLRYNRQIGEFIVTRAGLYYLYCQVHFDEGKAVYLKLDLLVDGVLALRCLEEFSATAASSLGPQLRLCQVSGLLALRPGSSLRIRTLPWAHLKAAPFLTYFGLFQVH", "assay": "SPR (Biacore 3000), His6-TWEAK immobilized on NTA chip, peptide as analyte, 1:1 Langmuir fit"}}, "note": "Where no end group is shown, it is not given here."}
{"binder": "DNGGGNTDIYSE-NH2", "note": "[Peptide 4: DNGGGNTDIYSE (SEQ ID NO: 4)]", "values": [{"measurement": "BIRC2 normalized level of expression (Zscore vs NARS2), RT-PCR, cells with peptide at 450 µM", "setting": "[1]", "result": -0.61, "unit": "Zscore"}, {"measurement": "HSP90B1 normalized level of expression (Zscore vs NARS2), RT-PCR, cells with peptide at 450 µM", "setting": "[1]", "result": -0.921, "unit": "Zscore"}, {"measurement": "IL6 normalized level of expression (Zscore vs NARS2), RT-PCR, cells with peptide at 450 µM", "setting": "[1]", "result": -0.045, "unit": "Zscore"}, {"measurement": "JUN normalized level of expression (Zscore vs NARS2), RT-PCR, cells with peptide at 450 µM", "setting": "[1]", "result": -0.509, "unit": "Zscore"}, {"measurement": "MAP4K4 normalized level of expression (Zscore vs NARS2), RT-PCR, cells with peptide at 450 µM", "setting": "[1]", "result": -1.56, "unit": "Zscore"}, {"measurement": "MAPK14 normalized level of expression (Zscore vs NARS2), RT-PCR, cells with peptide at 450 µM", "setting": "[1]", "result": -1.11, "unit": "Zscore"}, {"measurement": "NFkB2 normalized level of expression (Zscore vs NARS2), RT-PCR, cells with peptide at 450 µM", "setting": "[1]", "result": -1.32, "unit": "Zscore"}, {"measurement": "TNFRSF12A normalized level of expression (Zscore vs NARS2), RT-PCR, cells with peptide at 450 µM", "setting": "[1]", "result": -1.11, "unit": "Zscore"}, {"measurement": "TRAF2 normalized level of expression (Zscore vs NARS2), RT-PCR, cells with peptide at 450 µM", "setting": "[1]", "result": -0.439, "unit": "Zscore"}]}
{"binder": "SWYDHMAGDSSY-NH2", "note": "[Peptide 1: SWYDHMAGDSSY (SEQ ID NO: 2)]", "values": [{"measurement": "BIRC2 normalized level of expression (Zscore vs NARS2), RT-PCR, cells with peptide at 450 µM", "setting": "[1]", "result": -0.747, "unit": "Zscore"}, {"measurement": "HSP90B1 normalized level of expression (Zscore vs NARS2), RT-PCR, cells with peptide at 450 µM", "setting": "[1]", "result": -1.1, "unit": "Zscore"}, {"measurement": "IL6 normalized level of expression (Zscore vs NARS2), RT-PCR, cells with peptide at 450 µM", "setting": "[1]", "result": 0.198, "unit": "Zscore"}, {"measurement": "JUN normalized level of expression (Zscore vs NARS2), RT-PCR, cells with peptide at 450 µM", "setting": "[1]", "result": -0.509, "unit": "Zscore"}, {"measurement": "MAP4K4 normalized level of expression (Zscore vs NARS2), RT-PCR, cells with peptide at 450 µM", "setting": "[1]", "result": -1.7, "unit": "Zscore"}, {"measurement": "MAPK14 normalized level of expression (Zscore vs NARS2), RT-PCR, cells with peptide at 450 µM", "setting": "[1]", "result": -1.11, "unit": "Zscore"}, {"measurement": "NFkB2 normalized level of expression (Zscore vs NARS2), RT-PCR, cells with peptide at 450 µM", "setting": "[1]", "result": -1.51, "unit": "Zscore"}, {"measurement": "TNFRSF12A normalized level of expression (Zscore vs NARS2), RT-PCR, cells with peptide at 450 µM", "setting": "[1]", "result": -1.05, "unit": "Zscore"}, {"measurement": "TRAF2 normalized level of expression (Zscore vs NARS2), RT-PCR, cells with peptide at 450 µM", "setting": "[1]", "result": -0.548, "unit": "Zscore"}]}
{"binder": "SYTDVQDS-NH2", "note": "[Peptide 3: SYTDVQDS (SEQ ID NO: 3)]", "values": [{"measurement": "BIRC2 normalized level of expression (Zscore vs NARS2), RT-PCR, cells with peptide at 450 µM", "setting": "[1]", "result": -0.115, "unit": "Zscore"}, {"measurement": "HSP90B1 normalized level of expression (Zscore vs NARS2), RT-PCR, cells with peptide at 450 µM", "setting": "[1]", "result": -0.468, "unit": "Zscore"}, {"measurement": "IL6 normalized level of expression (Zscore vs NARS2), RT-PCR, cells with peptide at 450 µM", "setting": "[1]", "result": -0.972, "unit": "Zscore"}, {"measurement": "JUN normalized level of expression (Zscore vs NARS2), RT-PCR, cells with peptide at 450 µM", "setting": "[1]", "result": -0.206, "unit": "Zscore"}, {"measurement": "MAP4K4 normalized level of expression (Zscore vs NARS2), RT-PCR, cells with peptide at 450 µM", "setting": "[1]", "result": -1.36, "unit": "Zscore"}, {"measurement": "MAPK14 normalized level of expression (Zscore vs NARS2), RT-PCR, cells with peptide at 450 µM", "setting": "[1]", "result": -0.585, "unit": "Zscore"}, {"measurement": "NFkB2 normalized level of expression (Zscore vs NARS2), RT-PCR, cells with peptide at 450 µM", "setting": "[1]", "result": -1.15, "unit": "Zscore"}, {"measurement": "TNFRSF12A normalized level of expression (Zscore vs NARS2), RT-PCR, cells with peptide at 450 µM", "setting": "[1]", "result": -1.08, "unit": "Zscore"}, {"measurement": "TRAF2 normalized level of expression (Zscore vs NARS2), RT-PCR, cells with peptide at 450 µM", "setting": "[1]", "result": -0.577, "unit": "Zscore"}]}
{"binder": "TTDGSTGDDLQA-NH2", "note": "[Peptide 2: TTDGSTGDDLQA (SEQ ID NO: 1)]", "values": [{"measurement": "Kd", "setting": "[2]", "result": 170, "unit": "µM"}, {"measurement": "BIRC2 normalized level of expression (Zscore vs NARS2), RT-PCR, cells with peptide at 450 µM", "setting": "[1]", "result": -0.996, "unit": "Zscore"}, {"measurement": "HSP90B1 normalized level of expression (Zscore vs NARS2), RT-PCR, cells with peptide at 450 µM", "setting": "[1]", "result": -1.31, "unit": "Zscore"}, {"measurement": "IL6 normalized level of expression (Zscore vs NARS2), RT-PCR, cells with peptide at 450 µM", "setting": "[1]", "result": -0.535, "unit": "Zscore"}, {"measurement": "JUN normalized level of expression (Zscore vs NARS2), RT-PCR, cells with peptide at 450 µM", "setting": "[1]", "result": -0.488, "unit": "Zscore"}, {"measurement": "MAP4K4 normalized level of expression (Zscore vs NARS2), RT-PCR, cells with peptide at 450 µM", "setting": "[1]", "result": -1.13, "unit": "Zscore"}, {"measurement": "MAPK14 normalized level of expression (Zscore vs NARS2), RT-PCR, cells with peptide at 450 µM", "setting": "[1]", "result": -1.01, "unit": "Zscore"}, {"measurement": "NFkB2 normalized level of expression (Zscore vs NARS2), RT-PCR, cells with peptide at 450 µM", "setting": "[1]", "result": -1.21, "unit": "Zscore"}, {"measurement": "TNFRSF12A normalized level of expression (Zscore vs NARS2), RT-PCR, cells with peptide at 450 µM", "setting": "[1]", "result": -1.11, "unit": "Zscore"}, {"measurement": "TRAF2 normalized level of expression (Zscore vs NARS2), RT-PCR, cells with peptide at 450 µM", "setting": "[1]", "result": -0.409, "unit": "Zscore"}]}
